B1: library; a variant is named by its letters at N, in order (parent)
chain: GCUGUCACCGGUGUAUUACCCUAGUGGUCGACCGGUCUGAUGAGUCUNNNNNNAGACGAAACAGC

The variants in series [1] derive from B1. The experiment in a line: normalized RNA/DNA level with ligand (relative to sTRSVctl = 100) (log10 (% of sTRSVctl)); ligand: hypoxanthine (xanthine aptamer); higher = less ribozyme self-cleavage, higher mRNA level. Conditions: ligand concentration (+) RNA-Seq: 5 mM, HEK293T, reporter: mCherry (pCS4076), ligand present: yes. An outline of the steps: (§1)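 Only sequences with at least 100 DNA reads were analyzed, from HEK293T cells transfected with 4 µg per 6-well well of ribozyme switch library plasmids 72 h before RNA extraction with EDTA. Any ligand was added 1 h before transfection. RNA level was defined as RNA over DNA reads, normalized to a spiked-in non-cleaving sequence or to the top sequences, then scaled and log-transformed. The top set was 25 sequences, and the scaling was ×100 followed by log10.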

The variants in series [2] derive from B1. The experiment in a line: normalized RNA/DNA level without ligand (relative to sTRSVctl = 100) (log10 (% of sTRSVctl)); ligand: hypoxanthine (xanthine aptamer); higher = less ribozyme self-cleavage, higher mRNA level. To be noted: HEK293T, reporter: mCherry (pCS4076), ligand present: no. The gist of the method:
as §1

± gives the standard deviation of the averaged measurements.

Data on 21 variants can be found in the supplement of paper PMC6757056.

As for GCUGUCACCGGUGUAUUACCCUAGUGGUCGACCGGUCUGAUGAGUCUGCAGGUAGACGAAACAGC [GCAGGU], the “normalized RNA/DNA level with ligand (log10)” value in series [1] came to 1.93 ± 0.031. Besides, in series [2], the “normalized RNA/DNA level without ligand (log10)” value is 1.73 ± 0.056.

Take GCUGUCACCGGUGUAUUACCCUAGUGGUCGACCGGUCUGAUGAGUCUACAGGCAGACGAAACAGC [ACAGGC]: in series [1], the “normalized RNA/DNA level with ligand (log10)” value amounted to 1.89 ± 0.1. Further, the “normalized RNA/DNA level without ligand (log10)” value in series [2] was found to be 1.72 ± 0.038.

For the variant GCUGUCACCGGUGUAUUACCCUAGUGGUCGACCGGUCUGAUGAGUCUCCAGUAAGACGAAACAGC [CCAGUA], the “normalized RNA/DNA level with ligand (log10)” value in series [1] was 1.94 ± 0.054. Moreover, in series [2], the “normalized RNA/DNA level without ligand (log10)” value turned out to be 1.85 ± 0.038.

In the case of GCUGUCACCGGUGUAUUACCCUAGUGGUCGACCGGUCUGAUGAGUCUGCAGACAGACGAAACAGC [GCAGAC], in series [1], the “normalized RNA/DNA level with ligand (log10)” value is 1.89 ± 0.021. For the same variant, in series [2], the “normalized RNA/DNA level without ligand (log10)” value is 1.549 ± 0.0076.

As to GCUGUCACCGGUGUAUUACCCUAGUGGUCGACCGGUCUGAUGAGUCUACACUCAGACGAAACAGC [ACACUC], the “normalized RNA/DNA level with ligand (log10)” value in series [1] worked out at 1.96 ± 0.023. In series [2], the “normalized RNA/DNA level without ligand (log10)” value was 1.97 ± 0.063.

Regarding GCUGUCACCGGUGUAUUACCCUAGUGGUCGACCGGUCUGAUGAGUCUACACUAAGACGAAACAGC [ACACUA], the “normalized RNA/DNA level with ligand (log10)” value in series [1] stood at 1.94 ± 0.053. Also, the “normalized RNA/DNA level without ligand (log10)” value in series [2] is 1.801 ± 0.0044.

With GCUGUCACCGGUGUAUUACCCUAGUGGUCGACCGGUCUGAUGAGUCUACACUUAGACGAAACAGC [ACACUU], the “normalized RNA/DNA level with ligand (log10)” value in series [1] worked out at 1.95 ± 0.059. In addition, the “normalized RNA/DNA level without ligand (log10)” value in series [2] came to 1.83 ± 0.059.

Turning to GCUGUCACCGGUGUAUUACCCUAGUGGUCGACCGGUCUGAUGAGUCUUCAGAGAGACGAAACAGC [UCAGAG], the “normalized RNA/DNA level with ligand (log10)” value in series [1] is 1.9 ± 0.046. In addition, the “normalized RNA/DNA level without ligand (log10)” value in series [2] was found to be 1.58 ± 0.066.

GCUGUCACCGGUGUAUUACCCUAGUGGUCGACCGGUCUGAUGAGUCUUCAGAUAGACGAAACAGC [UCAGAU]: in series [1], the “normalized RNA/DNA level with ligand (log10)” value turned out to be 1.96 ± 0.037. Moreover, the “normalized RNA/DNA level without ligand (log10)” value in series [2] was 1.76 ± 0.066.

As for GCUGUCACCGGUGUAUUACCCUAGUGGUCGACCGGUCUGAUGAGUCUUCAGACAGACGAAACAGC [UCAGAC], in series [1], the “normalized RNA/DNA level with ligand (log10)” value is 1.964 ± 0.0055. For the same variant, the “normalized RNA/DNA level without ligand (log10)” value in series [2] came to 1.92 ± 0.042.

On to GCUGUCACCGGUGUAUUACCCUAGUGGUCGACCGGUCUGAUGAGUCUUCAGAAAGACGAAACAGC [UCAGAA], for which the “normalized RNA/DNA level with ligand (log10)” value in series [1] came to 1.9 ± 0.044. The “normalized RNA/DNA level without ligand (log10)” value in series [2] came out at 1.665 ± 0.0042.

For GCUGUCACCGGUGUAUUACCCUAGUGGUCGACCGGUCUGAUGAGUCUACAGCCAGACGAAACAGC [ACAGCC], the “normalized RNA/DNA level with ligand (log10)” value in series [1] was 1.97 ± 0.021. For the same variant, in series [2], the “normalized RNA/DNA level without ligand (log10)” value is 1.919 ± 0.01.

In the case of GCUGUCACCGGUGUAUUACCCUAGUGGUCGACCGGUCUGAUGAGUCUACAGCAAGACGAAACAGC [ACAGCA], the “normalized RNA/DNA level with ligand (log10)” value in series [1] came out at 1.94 ± 0.032. In addition, the “normalized RNA/DNA level without ligand (log10)” value in series [2] stood at 1.81 ± 0.028.

Take GCUGUCACCGGUGUAUUACCCUAGUGGUCGACCGGUCUGAUGAGUCUACAGCUAGACGAAACAGC [ACAGCU]: the “normalized RNA/DNA level with ligand (log10)” value in series [1] is 1.92 ± 0.027. In addition, the “normalized RNA/DNA level without ligand (log10)” value in series [2] turned out to be 1.87 ± 0.033.

GCUGUCACCGGUGUAUUACCCUAGUGGUCGACCGGUCUGAUGAGUCUACAGAAAGACGAAACAGC [ACAGAA]: the “normalized RNA/DNA level with ligand (log10)” value in series [1] came out at 1.922 ± 0.012. Also, the “normalized RNA/DNA level without ligand (log10)” value in series [2] was 1.7472 ± 0.0012.

On to GCUGUCACCGGUGUAUUACCCUAGUGGUCGACCGGUCUGAUGAGUCUACAGACAGACGAAACAGC [ACAGAC], for which the “normalized RNA/DNA level with ligand (log10)” value in series [1] was 1.92 ± 0.078. In addition, the “normalized RNA/DNA level without ligand (log10)” value in series [2] is 1.838 ± 0.0042.

On to GCUGUCACCGGUGUAUUACCCUAGUGGUCGACCGGUCUGAUGAGUCUCCAGGAAGACGAAACAGC [CCAGGA], for which the “normalized RNA/DNA level with ligand (log10)” value in series [1] stood at 1.97 ± 0.033. In addition, the “normalized RNA/DNA level without ligand (log10)” value in series [2] came out at 1.83 ± 0.022.

For GCUGUCACCGGUGUAUUACCCUAGUGGUCGACCGGUCUGAUGAGUCUCCAGGGAGACGAAACAGC [CCAGGG], the “normalized RNA/DNA level with ligand (log10)” value in series [1] is 1.89 ± 0.11. Also, in series [2], the “normalized RNA/DNA level without ligand (log10)” value was determined as 1.37 ± 0.044.

Turning to GCUGUCACCGGUGUAUUACCCUAGUGGUCGACCGGUCUGAUGAGUCUCCAGGUAGACGAAACAGC [CCAGGU], the “normalized RNA/DNA level with ligand (log10)” value in series [1] came out at 1.99 ± 0.067. In addition, in series [2], the “normalized RNA/DNA level without ligand (log10)” value is 1.833 ± 0.0077.

Take GCUGUCACCGGUGUAUUACCCUAGUGGUCGACCGGUCUGAUGAGUCUCCAGGCAGACGAAACAGC [CCAGGC]: the “normalized RNA/DNA level with ligand (log10)” value in series [1] worked out at 1.97 ± 0.041. The “normalized RNA/DNA level without ligand (log10)” value in series [2] amounted to 1.86 ± 0.061.

Take GCUGUCACCGGUGUAUUACCCUAGUGGUCGACCGGUCUGAUGAGUCUGCACUCAGACGAAACAGC [GCACUC]: in series [1], the “normalized RNA/DNA level with ligand (log10)” value came out at 1.945 ± 0.0064. For the same variant, the “normalized RNA/DNA level without ligand (log10)” value in series [2] stood at 1.873 ± 0.0092.
